Earlier results, collected in article PMC3479961.

Columns and labels:
Experiment in all cases: surface plasmon resonance
plasmin (Homo sapiens) = plasmin (Homo sapiens) (UniProt P00747)
tPA (Homo sapiens) = tPA (Homo sapiens) (UniProt P00750)
[1] = biological target: plasminogen (Homo sapiens) (UniProt P00747)

UniProt P00750, sequence (P00750 36-562): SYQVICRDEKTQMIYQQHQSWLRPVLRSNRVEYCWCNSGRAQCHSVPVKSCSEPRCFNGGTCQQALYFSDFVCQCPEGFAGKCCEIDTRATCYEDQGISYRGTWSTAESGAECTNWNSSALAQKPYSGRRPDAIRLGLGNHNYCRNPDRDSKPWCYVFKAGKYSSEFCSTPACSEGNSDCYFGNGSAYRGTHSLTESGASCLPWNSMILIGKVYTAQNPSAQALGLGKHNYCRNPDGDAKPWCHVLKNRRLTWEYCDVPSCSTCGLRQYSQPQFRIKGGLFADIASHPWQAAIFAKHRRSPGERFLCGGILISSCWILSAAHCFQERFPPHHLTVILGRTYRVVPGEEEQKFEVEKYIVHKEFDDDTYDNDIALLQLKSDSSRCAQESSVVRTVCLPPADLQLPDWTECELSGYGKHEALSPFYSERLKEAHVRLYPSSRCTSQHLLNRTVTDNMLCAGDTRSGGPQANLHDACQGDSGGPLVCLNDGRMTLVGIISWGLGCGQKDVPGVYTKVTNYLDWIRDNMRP

Kd (plasmin (Homo sapiens)): 360 nM
Kd (tPA (Homo sapiens)): 450 nM
Kd [1]: 1810 nM
Substance: S100A10 (from UniProt P60903)
